Target: T1, fibroin sheet (Bombyx mori, UniProt P05790)
T1 construct: purchased Sigma-Aldrich
Experiment: Color intensity of modified fibroin sheet after glucose/HRP/4-aminoantipyrine chromogenic reaction
Format: biochemical
Conditions: fibroin sheet adsorbed from 0.3 mg/mL solution, 10 mM glucose, 1000 U/mL HRP, 5 minutes, ImageJ, average of five sheets
Description: After methanol was added to the collected sheet, methanol was removed and dried overnight. The measurement of the weight of the fibroin sheet cut into 20 mm×40 mm size confirmed that it was 1.25 μg/mm^2 fibroin sheet. Fibroin sheets of 5 mm×5 mm size were cut and added to an aqueous solution of 0.3 mg/mL Compound 1 (0.2 mL) and allowed to stand for 10 minutes. Fibroin sheets were immersed in PBS buffer (1 mL, pH7.4) containing 0.05 wt % Tween20 for 15 minutes×2 and in PBS (1 mL, pH7.4) for 1 minute. The modified fibroin sheet was obtained by drying at room temperature.
A fibroin sheet adsorbed with Compound 6 was prepared in the same manner as Manufacturing Example 2 except that 0.3 mg/mL Compound 6 aqueous solution was used instead of the aqueous solution of Compound 1.
1.5 μL of phosphate buffered saline (pH7.4) containing 10 mM glucose, 1000 U/mL HRP, 3.7 mM 4-aminoantipyrine, 6.4 mM sodium 3-[ethyl(m-tolyl) amino]-2 hydroxy-1 propanesulfonate was added dropwise to a fibroin sheet modified with Compound 6 obtained in Manufacturing Example 12 and allowed to stand in a wet box for 5 minutes. […] After drying the sheet, the sheet was read by a scanner to obtain image data. […] Five sheets were prepared and subjected to the same evaluation, and the average value of color intensity (Color Intensity, hereinafter CI value) was calculated. The calculated CI value was 54.5.

Molecule	CI value (average color intensity)
Compound 6: Thioflavin T acid bound to glucose oxidase (GOx); 5.6 molecules per GOx molecule (conjugate, UniProt P13006 17-605, looked up, Thioflavin T acid conjugated, 5.6 per GOx, 5.6 molecules per GOx molecule) Glucose oxidase: LPHYIRSNGIEASLLTDPKDVSGRTVDYIIAGGGLTGLTTAARLTENPNISVLVIESGSYESDRGPIIEDLNAYGDIFGSSVDHAYETVELATNNQTALIRSGNGLGGSTLVNGGTWTRPHKAQVDSWETVFGNEGWNWDNVAAYSLQAERARAPNAKQIAAGHYFNASCHGVNGTVHAGPRDTGDDYSPIVKALMSAVEDRGVPTKKDFGCGDPHGVSMFPNTLHEDQVRSDAAREWLLPNYQRPNLQVLTGQYVGKVLLSQNGTTPRAVGVEFGTHKGNTHNVYAKHEVLLAAGSAVSPTILEYSGIGMKSILEPLGIDTVVDLPVGLNLQDQTTATVRSRITSAGAGQGQAAWFATFNETFGDYSEKAHELLNTKLEQWAEEAVARGGFHNTTALLIQYENYRDWIVNHNVAYSELFLDTAGVASFDVWDLLPFTRGYVHILDKDPYLHHFAYDPQYFLNELDLLGQAAATQLARNISNSGAMQTYFAGETIPGDNLAYDADLSAWTEYIPYHFRPNYHGVGTCSMMPKEMGGVVDNAARVYGVQGLRVIDGSIPPTQMSSHVMTVFYAMALKISDAILEDYASMQ	54.5
GOx: glucose oxidase (manufactured by Sigma-Aldrich, G2133), unmodified comparison (protein, UniProt P13006 17-605, looked up) Glucose oxidase: LPHYIRSNGIEASLLTDPKDVSGRTVDYIIAGGGLTGLTTAARLTENPNISVLVIESGSYESDRGPIIEDLNAYGDIFGSSVDHAYETVELATNNQTALIRSGNGLGGSTLVNGGTWTRPHKAQVDSWETVFGNEGWNWDNVAAYSLQAERARAPNAKQIAAGHYFNASCHGVNGTVHAGPRDTGDDYSPIVKALMSAVEDRGVPTKKDFGCGDPHGVSMFPNTLHEDQVRSDAAREWLLPNYQRPNLQVLTGQYVGKVLLSQNGTTPRAVGVEFGTHKGNTHNVYAKHEVLLAAGSAVSPTILEYSGIGMKSILEPLGIDTVVDLPVGLNLQDQTTATVRSRITSAGAGQGQAAWFATFNETFGDYSEKAHELLNTKLEQWAEEAVARGGFHNTTALLIQYENYRDWIVNHNVAYSELFLDTAGVASFDVWDLLPFTRGYVHILDKDPYLHHFAYDPQYFLNELDLLGQAAATQLARNISNSGAMQTYFAGETIPGDNLAYDADLSAWTEYIPYHFRPNYHGVGTCSMMPKEMGGVVDNAARVYGVQGLRVIDGSIPPTQMSSHVMTVFYAMALKISDAILEDYASMQ	30.8

From US20250361264A1, “PROTEIN MODIFYING REAGENT” (CANON KABUSHIKI KAISHA, priority 2023, published 2025)
